Laboratory results reported in patent WO2021212049A2.

Key:
Conditions in all cases: remark: other sources report otherwise
[1] = target: Mammalian SARS-CoV2 RBD (residues 331-524) with C-terminal 6XHis Tag (SARS-CoV-2), P0DTC2; assay: ELISA on coated antigen, anti-human IgG-HRP
[2] = target: T1, untagged SARS-CoV-2 RBD expressed in E. coli BL21(DE3) and oxidatively refolded (RBDWT) (SARS-CoV-2), P0DTC2; assay: BLI, RBD expressed in E. coli, 1:1 Langmuir fit
[3] = target: bacterially derived SARS-CoV RBD (SARS-CoV), P59594; assay: BLI, bacterially derived SARS-CoV RBD
[4] = target: T1, untagged SARS-CoV-2 RBD expressed in E. …; assay: BLI, RBD expressed in E. coli

B1: mAb 2H04 (antibody)
chain 1: EVQLQQSGAELVKPGASVKMSCKASGYTFTSYWITWVKQRPGQGLEWIGDIYPGSGSTKYNEKFRSEATLTVDTSSTTAYMQLSSLTSEDSAVYYCARWDFYGSRTFDYWGQGTTLTVSS
chain 2: DIVLTQSPAILSVSPGERVSFSCRASQNIGTIIHWYQQRTNGSPRLLIKYASESVSGIPSRFSGSGSGTDFTLSINSVESEDIADYYCQQSSSWPLTFGAGTKLELK
minimum positive concentration [1]: < 5 µg/mL | Kd [2]: 40 nM | Kd [3]: 1420 nM | half-life [3]: 25.8 s | half-life [4]: 76.2 s
